Measured values as given in patent US12605469B2, “Tumor specific antibody conjugates and uses therefor” (The University of North Carolina at Charlotte, priority 2019, dated 2026).

Target: T1, human MUC1, tumor-associated form (tMUC), on tumor cells and tumor tissue (human, UniProt P15941 24-1255, tumor-associated (aberrant) glycosylation, not specified further)
T1 construct: also called tMUC1; tumor-associated glycosylated MUC1
Test: fluorescence microscopy of CAR T cells co-incubated with HPAFII cells

T1 sequence (P15941 other isoform, or with tags, fused parts or gaps limits assumed): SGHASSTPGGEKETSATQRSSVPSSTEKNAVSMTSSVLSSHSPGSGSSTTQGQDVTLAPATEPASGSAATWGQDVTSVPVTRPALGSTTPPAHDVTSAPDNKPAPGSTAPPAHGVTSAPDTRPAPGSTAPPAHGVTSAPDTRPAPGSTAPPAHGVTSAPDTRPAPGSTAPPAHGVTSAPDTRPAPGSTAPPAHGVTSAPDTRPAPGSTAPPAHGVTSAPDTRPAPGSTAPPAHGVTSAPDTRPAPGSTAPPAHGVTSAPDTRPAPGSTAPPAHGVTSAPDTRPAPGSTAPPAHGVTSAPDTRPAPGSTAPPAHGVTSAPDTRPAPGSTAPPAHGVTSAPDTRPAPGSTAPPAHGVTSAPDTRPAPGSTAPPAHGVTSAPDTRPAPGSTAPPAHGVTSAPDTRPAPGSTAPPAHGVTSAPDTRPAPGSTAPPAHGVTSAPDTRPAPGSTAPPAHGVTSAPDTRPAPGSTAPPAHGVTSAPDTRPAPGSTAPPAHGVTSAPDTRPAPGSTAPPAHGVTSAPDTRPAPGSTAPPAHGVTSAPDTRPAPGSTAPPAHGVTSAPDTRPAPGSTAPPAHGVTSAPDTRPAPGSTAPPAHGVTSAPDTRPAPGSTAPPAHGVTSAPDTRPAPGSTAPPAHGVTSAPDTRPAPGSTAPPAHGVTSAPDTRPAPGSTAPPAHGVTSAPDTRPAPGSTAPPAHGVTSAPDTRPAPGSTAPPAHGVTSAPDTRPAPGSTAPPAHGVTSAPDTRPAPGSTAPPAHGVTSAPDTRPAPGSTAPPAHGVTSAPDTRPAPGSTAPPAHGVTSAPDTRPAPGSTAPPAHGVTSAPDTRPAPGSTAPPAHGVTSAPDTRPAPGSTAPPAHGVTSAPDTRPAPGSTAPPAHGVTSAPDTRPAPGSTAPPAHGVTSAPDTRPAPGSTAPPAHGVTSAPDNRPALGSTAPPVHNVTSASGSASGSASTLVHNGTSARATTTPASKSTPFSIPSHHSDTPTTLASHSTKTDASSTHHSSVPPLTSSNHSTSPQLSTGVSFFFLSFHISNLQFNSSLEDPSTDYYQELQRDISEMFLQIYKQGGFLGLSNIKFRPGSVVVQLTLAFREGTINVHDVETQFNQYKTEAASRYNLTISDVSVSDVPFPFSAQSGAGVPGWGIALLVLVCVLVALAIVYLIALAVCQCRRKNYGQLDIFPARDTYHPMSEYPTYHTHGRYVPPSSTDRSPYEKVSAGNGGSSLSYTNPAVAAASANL

B1: TAB-28z-mKATE chimeric antigen receptor (2nd generation), on T cells (receptor)
chain: EVQLQQSGGERATPGASVKMSCKTSGYTFTNYWMHWVKQRPGQGLEWIGYINPSSGYTQYNQKFKDKATLTADKSSSTAYIQLSSLTSEDSAVYYCSTYYGDYLFPYWGQGTLVTVSAGGGGSGGGGSGGGGSDVLMTQTPLSLPVSLGDQASISCRSSQDIVYGNGNTYLEWYLQKPGQSPKLLIYKVSNRFSGVPDRFSGSGSGTDFTLKISRVEAEDLGVYYCFQGSHVPYTFGGGTKLEIKRAAAIEVEQKLISEEDLLDNEKSNGTIIHVKGKHLCPSPLFPGPSKPFWVLVVVGGVLACYSLLVTVAFIIFWVRSKRSRLLHSDYMNMTPRRPGPTRKHYQPYAPPRDFAAYRSRVKFSRSADAPAYQQGQNQLYNELNLGRREEYDVLDKRRGRDPEMGGKPRRKNPQEGLYNELQKDKMAEAYSEIGMKGERRRGKGHDGLYQGLSTATKDTYDALHMQALPPRARGAAAGAGGAGRMVSELIKENMHMKLYMEGTVNNHHFKCTSEGEGKPYEGTQTMRIKAVEGGPLPFAFDILATSFMYGSKTFINHTQGIPDFFKQSFPEGFTWERVTTYEDGGVLTATQDTSLQDGCLIYNVKIRGVNFPSNGPVMQKKTLGWEASTETLYPADGGLEGRADMALKLVGGGHLICNLKTTYRSKKPAKNLKMPGVYYVDRRLERIKEADKETYVEQHEVAVARYCDLPSKLGHR
notes: Expressed on the surface of T cells or Jurkat cells; also called CAR-mKATE; CAR-mKate fusion protein
binding result: binds
